B1: Syntenin-1 (Mus musculus), O08992 (parent)
chain: MSLYPSLEDLKVDKVIQAQTAYSANPASQAFVLVDASAALPPDGNLYPKLYPELSQYMGLSLNEAEICESMPMVSGAPAQGQLVARPSSVNYMVAPVTGNDAGIRRAEIKQGIREVILCKDQDGKIGLRLKSIDNGIFVQLVQANSPASLVGLRFGDQVLQINGENCAGWSSDKAHKVLKQAFGEKITMTIRDRPFERTVTMHKDSSGHVGFIFKSGKITSIVKDSSAARNGLLTDHHICEINGQNVIGLKDAQIADILSTAGTVVTITIMPTFIFEHIIKRMAPSIMKSLMDHTIPEV
partner: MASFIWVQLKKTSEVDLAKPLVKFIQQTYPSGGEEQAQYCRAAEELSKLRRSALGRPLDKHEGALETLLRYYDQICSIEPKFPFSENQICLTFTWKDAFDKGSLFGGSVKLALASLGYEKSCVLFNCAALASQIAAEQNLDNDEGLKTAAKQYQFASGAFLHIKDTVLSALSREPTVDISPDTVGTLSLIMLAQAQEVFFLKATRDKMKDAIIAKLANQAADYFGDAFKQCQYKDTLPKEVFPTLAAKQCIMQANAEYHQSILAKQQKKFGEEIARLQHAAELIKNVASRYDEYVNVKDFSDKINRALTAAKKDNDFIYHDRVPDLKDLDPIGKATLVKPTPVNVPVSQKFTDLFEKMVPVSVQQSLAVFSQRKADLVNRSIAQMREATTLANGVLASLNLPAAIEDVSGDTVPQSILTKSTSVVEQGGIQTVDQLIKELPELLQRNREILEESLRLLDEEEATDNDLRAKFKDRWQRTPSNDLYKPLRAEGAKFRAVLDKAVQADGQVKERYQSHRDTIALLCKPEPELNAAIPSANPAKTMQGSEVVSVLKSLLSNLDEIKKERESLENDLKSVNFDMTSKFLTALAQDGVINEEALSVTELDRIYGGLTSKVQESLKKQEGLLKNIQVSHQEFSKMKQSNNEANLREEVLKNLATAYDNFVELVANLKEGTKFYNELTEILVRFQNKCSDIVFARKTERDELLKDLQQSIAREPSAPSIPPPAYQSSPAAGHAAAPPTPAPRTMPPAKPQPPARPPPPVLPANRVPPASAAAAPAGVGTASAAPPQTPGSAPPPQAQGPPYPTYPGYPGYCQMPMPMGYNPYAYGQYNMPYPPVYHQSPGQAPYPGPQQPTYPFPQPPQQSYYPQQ

Variants of: B1
Details: with pdc6i_mouse Pdcd6ip

effect of a mutation on the interaction | Variant
disrupting interaction | Y4A;P5A;Y47A;P48A;Y51A;P52A

Variants of: B1
Details: with pdc6i_mouse Pdcd6ip
Remark: another data set of the same source

effect of a mutation on the interaction | Variant
disrupting interaction | Y4A;P5A;Y47A;P48A;Y51A;P52A
disrupting interaction | Y51A;P52A

From IntAct's records for PubMed 22660413
